Laboratory results as given in patent EP4520771A2 (Genmab A/S, dated 2025).
Numbering of substitutions follows the chain as printed.

B1: HER2 antibody 005 (antibody, human IgG1, V domains shown)
VH: EVQLVQSGAEVKKPGESLKISCKASGYSFHFYWIGWVRQMPGKGLEWMGSIYPGDSDTRYRPSFQGQVTISADKSISTAYLQWTSLKASDTAIYYCARQRGDYYYFYGMDVWGQGTTVTVSS
VL: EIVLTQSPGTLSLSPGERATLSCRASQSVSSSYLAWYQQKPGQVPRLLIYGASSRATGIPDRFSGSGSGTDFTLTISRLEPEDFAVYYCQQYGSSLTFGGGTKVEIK
notes: human IgG1,κ; also called HuMab 005; PC1014-005
B2: HER2 antibody 106 (antibody, V domains shown)
VH: EVQLVQSGAEVKKPGESLKISCKGSGYSFTRYWIGWVRQMPGKGLEWMGIIYPGDSDTRYSPSFQGQVTISADKSISTAYLQWSSLKASDTAMYYCARLTGDRGFDYYSGMDVWGQGTTVTVSS
VL: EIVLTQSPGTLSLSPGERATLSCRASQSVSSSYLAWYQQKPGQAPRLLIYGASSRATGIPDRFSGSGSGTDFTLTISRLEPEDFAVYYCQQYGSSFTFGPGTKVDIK
B3: HER2 antibody 059 (antibody, V domains shown)
VH: QVQLVQSGAEVKKPGASVRVPCKASGYTFTRYGISWVRQAPGQGLEWMGWISAYNGKTYYAQKLQGRVTMTTDTSTSTAYMELRSLRSDDTAVYYCARSPLLWFEELYFDYWGQGTLVTVSS
VL: EIVLTQSPGTLSLSPGERATLSCRASQSVSSTYLAWYQQKPGQAPRLLIYGASSRATGIPDRFSGSGSGTDFTLTISRLEPEDFAVYYCQQYGTSLFTFGPGTKVDIK
B4: HER2 antibody 060 (antibody, V domains shown)
VH: EVQLVQSGAEVKKPGESLKISCKGSGYRFTSYWIGWVRQMPGKGLEWMGSIYPGDSYTRNSPSFQGQVTISADKSIATAYLQWNSLKASDTAMYYCARHAGDFYYFDGLDVWGQGTTVTVSS
VL: not shown
B5: HER2 antibody 111 (antibody, V domains shown)
VH: QVQLVQSGAEVKKPGSSVKVSCKASGGTFSSYGISWVRQAPGPGLEWMGRIIPILGIANYAQKFQGRVTITADKSTNTAYMELSSLRSEDTAVYYCARDQEYSSNWYYWGQGTLVTVSS
VL: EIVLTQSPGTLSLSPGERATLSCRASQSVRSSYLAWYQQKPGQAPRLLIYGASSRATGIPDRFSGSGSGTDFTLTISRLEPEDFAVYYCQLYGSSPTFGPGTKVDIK
B6: HER2 antibody 169 (antibody, V domains shown)
VH: QVQLVQSGAEVKKPGASVKVSCKASGYTFTNYGISWVRQAPGQGLEWMGWLSAYSGNTIYAQKLQGRVTMTTDTSTTTAYMELRSLRSDDTAVYYCARDRIVVRPDYFDYWGQGTLVTVSS
VL: EIVLTQSPATLSLSPGERATLSCRASQSVSSYLAWYQQKPGQAPRLLIYDASNRATGIPARFSGSGSGTDFTLTISSLEPEDFAVYYCQQRSNWPRTFGQGTKVEIK
B7: HER2 antibody 132 (antibody, V domains shown)
VH: QVQLVQSGAEVKKPGASVKVSCKASGYTFTSYGISWVRQAPGQGLEWMGWISAYNGNSNYVQKFQGRVTMTTDTTTSTAYMELRSLTSDDTAVYYCAREYSYDSGTYFYYGMDVWGQGTTVTVSS
VL: EIVLTQSPATLSLSPGERATLSCRASQSVSSYLAWYQQKPGQAPRLLIYDASNRATGIPARFSGSGSGTDFTLTISSLEPEDFAVYYCQQRSNWPMYTFGQGTKLEIK
B8: HER2 antibody 127 (antibody, V domains shown)
VH: EVQLVQSGAEVKKPGESLTISCKGSGYSFSIYWIGWVRQMPGKGLEWMGIIFPGDSDIRYSPSFQGQVTISADKSISTAYLQWSSLKASDTAMYYCARQPGDWSPRHWYFDLWGRGTLVTVSS
VL: VIWMTQSPSLLSASTGDRVTISCRMSQGISSYLAWYQQKPGKAPELLIYAASTLQSGVPSRFSGSGSGTDFTLTISYLQSEDFATYYCQQYYSFPLTFGGGTKVEIK
B9: HER2 antibody 159 (antibody, V domains shown)
VH: EVQLVQSGAEVKKPGESLKISCKGSGYNFTSYWIGWVRQMPGKGLEWMGIIYPGDSDTRYSPSFQGQVTISADKSISTAYLQWSSLKASDTAMYYCARWGTYYDILTGYFNWFDPWGQGTLVTVSS
VL: DIQMTQSPSSLSASVGDRVTITCRASQGISSWLAWYQQKPEKAPKSLIYAASSLQSGVPSRFSGSGSGTDFTLTISSLQPEDFATYYCQQYYIYPWTFGQGTKVEIK
B10: HER2 antibody 091 (antibody, V domains shown)
VH: QVQLQQWGAGLLKPSETLSLTCAVSGGSFSGYYWTWIRQPPGKGLEWIGEIYHSGDTNYNPSLKSRVTISVDTSKNQFSLKLYSVTAADTAVYYCARLYFGSGIYYLDYWGQGTLVTVSS
VL: B9 VL with A34V, Y92N, I93S, Y94F, W96P
B11: HER2 antibody 025 (antibody, V domains shown)
VH: QVQLQQWGAGLLKPSETLSLTCAVYGGSFSDYYWNWIRQPPGKGLEWIGEIHHSGSTNYNPSLKSRVTISVDTSKNQFSLKLSSVTAADTAVYYCARGYYDSGVYYFDYWAQGTLVTVSS
VL: B9 VL with S31R, Q55R, Y92N, I93S, W96I, K103R, V104L
notes: also called HuMab-025; PC1014-025
B12: HER2 antibody 098 (antibody, V domains shown)
VH: EVQLLESGGGLVQPGGSLRLSCAASGFTFSNYGMSWVRQAPGKGLEWVSAISGSAYSTYYADSVKGRFTISRDNSKNTLWLQMNSLRAEDTAVYYCAKAHYHGSGSYYTLFDYWGQGTLVTVSS
VL: B9 VL with Y92N, I93S, W96Y, V104L
notes: also called PC1014-098; TH1014-098
B13: HER2 antibody 153 (antibody, V domains shown)
VH: QVQLVESGGGVVQPGRSLRLSCAASGFTFSDYVIHWVRQAPGKGLEWVTVISYDGSNKYYADSVKGRFTISRDNSKNTLYLQMNSLSAEDTAMYYCARGGITGTTGVFDYWGQGTLVTVSS
VL: B9 VL with A50D, S67Y, T72S, T85I, Y92K, I93S, W96I, K103R, V104L
B14: HER2 antibody 084 (antibody, V domains shown)
VH: QVQLVQSGAEVKKPGSSVKVSCKASGGTFRTYAINWVRQAPGQGLEWMGRINTVLGIVNHAQKFQGRVTITADKSTNTAYMELNSLRSEDTAVYYCAREKGVDYYYGIEVWGQGTTVTVSS
VL: DIQMTQSPSSVSASVGDRVTITCRASQGISSWLAWYQHKPGKAPKLLIYVASTLQSGVPSRFSGSGSGTDFTLTISSLQPEDFATYYCQQANSFPLTFGGGTKVEIK
B15: HER2 antibody 050 (antibody, V domains shown)
VH: EVQLLESGGGLVQPGGSLRLSCAASGFTFSSYAMNWVRQAPGKGLEWVSAISGRGGTTYYADSVKGRFTISRDNSKNTLYLQMSSLRAEDTAVYYCAKARANWDYFDYWGQGTLVTVSS
VL: B14 VL with V50A, T53I, L96I, G100Q, K103R, V104L
B16: HER2 antibody 129 (antibody, V domains shown)
VH: QVQLVESGGGVVQPGRSLRLSCAASGFTFSTFAIHWVRQAPGKGLEWVAVISYDGGHKFYADSVKGRFTISRDNSKNTLYLQMNSLRAEDTAMYYCARGLGVWGAFDYWGQGTLVTVSS
VL: EIVLTQSPATLSLSPGERATLSCRASQSVSSYLAWYQQKPGQAPRLLIYDASNRATGIPARFSGSGSGTDFTLTISSLEPEDFAVYYCQQRSNWWTFGQGTKVEIK

The binders below were run against T1, human epidermal growth factor receptor 2 (HER2) (human, UniProt P04626 23-1255) (assay: cell-based or functional assay).

| Binder | % cells killed (maximal), AU565 cells, anti-kappa-ETA'-conjugated antibody [%] | EC50 of AU565 cell kill, anti-kappa-ETA'-conjugated antibody [ng/mL] |
| --- | --- | --- |
| B1 | 69.7 | 15.1 |
| B2 | 59.1 | 108 |
| B3 | 67 | 67.7 |
| B4 | 64.3 | 79.4 |
| B5 | 72 | 24.2 |

Biological target: T1, human epidermal growth factor receptor …
Experiment: cell-based or functional assay
Remark: another data set of the same source

| Binder | % cells killed (maximal), AU565 cells, anti-kappa-ETA'-conjugated antibody [%] | EC50 of AU565 cell kill, anti-kappa-ETA'-conjugated antibody [ng/mL] |
| --- | --- | --- |
| B6 | 49.9 | 35.6 |
| B7 | 61.6 | 39.4 |
| B8 | 69 | 34.5 |
| B9 | 70.3 | 34.9 |
| B10 | 50.6 | 46.5 |
| B11 | 60 | 16.7 |
| B12 | 58.7 | 12.1 |
| B13 | 60.3 | 32.3 |
| B14 | 58.1 | 27 |
| B15 | 52.4 | 12.7 |
| B16 | 60.8 | 30.9 |

What follows are binders tested against T1, human epidermal growth factor receptor … (assay: flow cytometry on AU565 cells).

| Binder | EC50 [µg/mL] |
| --- | --- |
| B12 | 0.336 |

Biological target: T1, human epidermal growth factor receptor …
Experiment: cell-based or functional assay
Remark: another data set of the same source

| Binder | EC50 of A431 cell kill, anti-kappa-ETA'-conjugated antibody [ng/mL] |
| --- | --- |
| B5 | ~10 |

Biological target: T1, human epidermal growth factor receptor …
Experiment: cell-based or functional assay
Remark: another data set of the same source

| Binder | % cells killed (maximal), A431 cells, anti-kappa-ETA'-conjugated antibody [%] | EC50 of A431 cell kill, anti-kappa-ETA'-conjugated antibody [ng/mL] |
| --- | --- | --- |
| B6 | 34 |  |
| B10 | 83.3 | ~9.86 |
| B11 | 86.7 | ~9.77 |
| B12 | 87.2 | 1.65 |
| B13 | 82.4 | ~10.1 |
| B14 | 50.5 |  |
| B16 | 75.9 | ~10.6 |

Biological target: T1, human epidermal growth factor receptor …
Experiment: cell-based or functional assay
Remark: another data set of the same source

| Binder | EC50 of A431 cell kill, anti-kappa-ETA'-conjugated antibody [ng/mL] |
| --- | --- |
| B1 | ~10.1 |
| B4 | ~10 |

These binders were tested against T1, human epidermal growth factor receptor … (assay: flow cytometry on A431 cells).

| Binder | binding result | EC50 [µg/mL] |
| --- | --- | --- |
| B1 | binds |  |
| B11 | binds |  |
| B12 |  | 0.068 |
